Publication PMC8325345

T1: ecHrpA FL (Escherichia coli DH5-alpha, UniProt P43329 1-1300)
T1 sequence: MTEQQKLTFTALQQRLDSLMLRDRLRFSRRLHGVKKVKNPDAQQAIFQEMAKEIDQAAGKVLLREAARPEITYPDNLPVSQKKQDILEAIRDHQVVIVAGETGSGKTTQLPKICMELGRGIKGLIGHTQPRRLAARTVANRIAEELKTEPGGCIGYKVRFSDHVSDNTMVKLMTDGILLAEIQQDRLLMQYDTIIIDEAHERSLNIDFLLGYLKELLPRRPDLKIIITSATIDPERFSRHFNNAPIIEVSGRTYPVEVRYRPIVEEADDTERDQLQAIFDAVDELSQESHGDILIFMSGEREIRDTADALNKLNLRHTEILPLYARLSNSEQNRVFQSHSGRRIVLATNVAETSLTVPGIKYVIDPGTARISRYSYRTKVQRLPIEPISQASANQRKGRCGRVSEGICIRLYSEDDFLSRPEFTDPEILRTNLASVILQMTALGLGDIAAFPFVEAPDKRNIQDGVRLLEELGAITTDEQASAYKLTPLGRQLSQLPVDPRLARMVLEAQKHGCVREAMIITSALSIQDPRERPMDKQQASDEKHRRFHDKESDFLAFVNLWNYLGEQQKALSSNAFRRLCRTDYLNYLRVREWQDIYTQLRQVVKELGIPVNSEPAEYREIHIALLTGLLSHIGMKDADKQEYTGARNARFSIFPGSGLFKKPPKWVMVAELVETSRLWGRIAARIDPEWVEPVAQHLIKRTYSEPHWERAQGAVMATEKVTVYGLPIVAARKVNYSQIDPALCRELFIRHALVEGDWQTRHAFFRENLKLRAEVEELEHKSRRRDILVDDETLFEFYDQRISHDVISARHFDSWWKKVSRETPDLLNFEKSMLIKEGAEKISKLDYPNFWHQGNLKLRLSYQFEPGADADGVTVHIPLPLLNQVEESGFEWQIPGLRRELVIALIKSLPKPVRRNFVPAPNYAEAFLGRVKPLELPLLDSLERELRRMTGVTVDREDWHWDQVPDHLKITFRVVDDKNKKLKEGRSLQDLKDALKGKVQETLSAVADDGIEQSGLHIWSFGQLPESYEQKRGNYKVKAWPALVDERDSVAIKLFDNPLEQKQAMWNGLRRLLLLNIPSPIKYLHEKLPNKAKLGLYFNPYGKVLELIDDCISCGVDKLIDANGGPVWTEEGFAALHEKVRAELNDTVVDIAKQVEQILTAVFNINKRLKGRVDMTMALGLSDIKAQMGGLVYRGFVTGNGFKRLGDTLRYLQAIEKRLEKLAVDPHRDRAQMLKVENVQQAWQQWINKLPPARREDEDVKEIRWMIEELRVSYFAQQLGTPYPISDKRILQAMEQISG

T2: ecHrpA1-783,E675A (Escherichia coli DH5-alpha, UniProt P43329 1-783, E675A)
T2 sequence: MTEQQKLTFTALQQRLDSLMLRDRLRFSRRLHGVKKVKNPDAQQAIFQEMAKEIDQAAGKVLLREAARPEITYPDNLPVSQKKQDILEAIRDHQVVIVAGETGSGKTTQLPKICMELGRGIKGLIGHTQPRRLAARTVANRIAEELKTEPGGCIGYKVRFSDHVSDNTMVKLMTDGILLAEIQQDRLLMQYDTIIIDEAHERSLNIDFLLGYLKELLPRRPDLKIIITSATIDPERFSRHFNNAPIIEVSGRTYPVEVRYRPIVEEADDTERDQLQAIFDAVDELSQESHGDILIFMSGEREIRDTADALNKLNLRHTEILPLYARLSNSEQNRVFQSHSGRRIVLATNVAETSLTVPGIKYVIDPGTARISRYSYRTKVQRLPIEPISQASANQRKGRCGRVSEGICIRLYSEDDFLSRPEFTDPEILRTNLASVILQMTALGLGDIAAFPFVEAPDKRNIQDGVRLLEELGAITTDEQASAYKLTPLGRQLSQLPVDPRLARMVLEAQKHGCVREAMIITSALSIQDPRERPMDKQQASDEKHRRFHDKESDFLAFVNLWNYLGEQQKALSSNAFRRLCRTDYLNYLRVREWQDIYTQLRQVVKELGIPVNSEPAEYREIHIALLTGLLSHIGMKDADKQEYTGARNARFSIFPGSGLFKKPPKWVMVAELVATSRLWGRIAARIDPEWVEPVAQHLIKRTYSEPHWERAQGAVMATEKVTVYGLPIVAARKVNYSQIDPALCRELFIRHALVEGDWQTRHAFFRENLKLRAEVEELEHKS


Assays:
[1] = molecular target: T1, ecHrpA FL; test: fluorescence anisotropy
[2] = molecular target: T2, ecHrpA1-783,E675A; test: fluorescence anisotropy

| Binder | binding result [1] | binding signal [2] |
| --- | --- | --- |
| FAM-RNABlunt (dsRNA) RNA 1: GCUGCCAGACCAAAU RNA 2: AUUUGGUCUGGCAGC | no binding |  |
| TATAAACCAGACCGTC (ssDNA) [FAM-DNASS16] | no binding |  |
| GCUGCCAGACCAAAU (ssRNA) [FAM-RNASS15] |  | ~2.2 fold lower RNA binding than ecHrpA1-783 |
